Experiment [1] has as its target T1, hFcgRIa (human, UniProt P12314 16-292).
T1 construct: extracellular domain; also called human FcγRIa; FcγRI
As to the kind of experiment: SPR 25C.
Method: (§1) Biacore T200 (GE Healthcare) was used to evaluate the binding activity to the respective human Fcγ receptor (hereafter referred to as FcγR). Measurement was performed at 25° C. using 50 mM phosphate, 150 mM NaCl, 0.05 w/v %-P20, pH 7.4 as buffer. About 1000 RU of antibody was captured using a sensor chip immobilized with CaptureSelect™ Human Fab-lambda Kinetics Biotin Conjugate (Thermo Fisher Scientific) as a molecule for ligand capturing. Human FcγR was diluted to 8 nM for FcγRIa and 1000 nM for other FcγR in the measurement buffer, and it was interacted to the captured antibody. The binding activity of each antibody to FcγR was assessed by calculating the binding amount of FcγR (RU) per unit amount of antibody using Biacore T200 Evaluation Software 2.0.

The target of experiment [2] is T2, hFcgRIIaH (human, UniProt P12318 34-217).
T2 construct: extracellular domain; also called human FcγRIIa type H (H131)
T2 sequence (looked up): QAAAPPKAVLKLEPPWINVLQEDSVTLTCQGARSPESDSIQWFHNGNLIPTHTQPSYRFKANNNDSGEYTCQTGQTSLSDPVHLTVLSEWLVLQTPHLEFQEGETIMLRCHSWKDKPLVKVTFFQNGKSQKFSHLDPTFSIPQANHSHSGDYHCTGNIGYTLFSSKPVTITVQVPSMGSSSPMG
As to the kind of experiment: SPR 25C.
Method: as §1

In experiment [3] the target is T3, hFcgRIIaR (human, UniProt P12318 34-217).
T3 construct: extracellular domain; also called human FcγRIIa type R (R131)
T3 sequence (looked up): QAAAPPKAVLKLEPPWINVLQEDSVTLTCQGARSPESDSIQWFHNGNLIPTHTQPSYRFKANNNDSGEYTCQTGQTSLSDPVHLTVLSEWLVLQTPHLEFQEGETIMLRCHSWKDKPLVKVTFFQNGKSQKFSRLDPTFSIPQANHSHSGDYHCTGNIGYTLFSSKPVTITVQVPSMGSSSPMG
Nature of the experiment: SPR 25C.
Method: as §1

For experiment [4], the target named is T4, hFcgRIIb (human, UniProt P31994 43-217).
T4 construct: extracellular domain; also called human FcγRIIb
T4 sequence (looked up): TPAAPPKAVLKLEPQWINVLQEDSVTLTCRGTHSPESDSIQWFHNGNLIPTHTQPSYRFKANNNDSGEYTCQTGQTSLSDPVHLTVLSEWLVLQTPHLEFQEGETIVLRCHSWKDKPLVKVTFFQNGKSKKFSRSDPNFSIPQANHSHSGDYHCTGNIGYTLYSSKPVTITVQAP
As to the kind of experiment: SPR 25C.
Method: as §1

In experiment [5] the target is T5, hFcgRIIIaF (human, UniProt P08637 17-208).
T5 construct: extracellular domain; also called human FcγRIIIa allotype F158
Nature of the experiment: SPR 25C.
Method: as §1

Experiment [6] deals with T6, hFcgRIIIaV (human, UniProt P08637 17-208).
T6 construct: extracellular domain; also called human FcγRIIIa allotype V158
As to the kind of experiment: SPR 25C.
Method: as §1

Another experiment has as its target human FcRn (human, UniProt P55899 24-290; P61769 21-119, limits assumed). As to the kind of experiment: SPR 25C pH 6.0, steady state.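 Further: antibody captured on chip via anti-human Fab-lambda ligand, human FcRn injected as analyte in 50 mM phosphate buffer with 150 mM NaCl and P20.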
The target in experiment [7] is T1, hFcgRIa. As to the kind of experiment: SPR 25C; relative to A375-G1T3/B167-Lamlib.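 Further: SPR with antibody captured on an anti-human Fab-lambda chip, human FcγR analyte at 8 nM for FcγRIa or 1000 nM for the others, pH 7.4, FcγR RU per captured antibody unit.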
In experiment [8] the target is T2, hFcgRIIaH. Nature of the experiment: SPR 25C; relative to A375-G1T3/B167-Lamlib.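 Further: SPR with antibody captured on an anti-human Fab-lambda chip, human FcγR analyte at 8 nM for FcγRIa or 1000 nM for the others, pH 7.4, FcγR RU per captured antibody unit.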
Experiment [9] addresses T3, hFcgRIIaR. Nature of the experiment: SPR 25C; relative to A375-G1T3/B167-Lamlib.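 Further: SPR with antibody captured on an anti-human Fab-lambda chip, human FcγR analyte at 8 nM for FcγRIa or 1000 nM for the others, pH 7.4, FcγR RU per captured antibody unit.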
Experiment [10] deals with T4, hFcgRIIb. As to the kind of experiment: SPR 25C; relative to A375-G1T3/B167-Lamlib.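 Further: SPR with antibody captured on an anti-human Fab-lambda chip, human FcγR analyte at 8 nM for FcγRIa or 1000 nM for the others, pH 7.4, FcγR RU per captured antibody unit.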
The target of experiment [11] is T5, hFcgRIIIaF. Nature of the experiment: SPR 25C; relative to A375-G1T3/B167-Lamlib.
The target of experiment [12] is T6, hFcgRIIIaV. As to the kind of experiment: SPR 25C; relative to A375-G1T3/B167-Lamlib.

The results in this text go back to patent US20210324099A1 (Chugai, published 2021).
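Wherever binding per 1RU of antibody is given: biacore SPR with antibody captured on an anti-human Fab lambda chip, human FcγR injected at 1000 nM (FcγRIa at 8 nM) in pH 7.4 phosphate buffer.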

T6 sequence (P08637 17-208 F176V): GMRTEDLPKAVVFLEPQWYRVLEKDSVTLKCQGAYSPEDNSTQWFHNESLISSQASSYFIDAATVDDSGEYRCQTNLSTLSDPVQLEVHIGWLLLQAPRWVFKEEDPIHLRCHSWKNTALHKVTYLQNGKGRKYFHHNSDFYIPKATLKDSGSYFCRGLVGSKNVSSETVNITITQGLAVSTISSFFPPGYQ
T5 sequence (P08637 17-208): as the sequence (P08637 17-208 F176V) above, with V160F counted along it
T1 sequence (P12314 16-292): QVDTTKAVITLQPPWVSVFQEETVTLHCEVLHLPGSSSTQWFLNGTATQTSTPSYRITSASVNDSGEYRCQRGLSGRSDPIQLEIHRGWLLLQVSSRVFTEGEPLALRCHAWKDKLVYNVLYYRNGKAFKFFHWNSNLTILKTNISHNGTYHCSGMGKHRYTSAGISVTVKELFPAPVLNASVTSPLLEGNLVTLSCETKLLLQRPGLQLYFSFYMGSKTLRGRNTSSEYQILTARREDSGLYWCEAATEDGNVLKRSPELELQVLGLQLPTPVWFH
Chain of human FcRn (P55899 24-290 limits assumed, chain 1 of 2): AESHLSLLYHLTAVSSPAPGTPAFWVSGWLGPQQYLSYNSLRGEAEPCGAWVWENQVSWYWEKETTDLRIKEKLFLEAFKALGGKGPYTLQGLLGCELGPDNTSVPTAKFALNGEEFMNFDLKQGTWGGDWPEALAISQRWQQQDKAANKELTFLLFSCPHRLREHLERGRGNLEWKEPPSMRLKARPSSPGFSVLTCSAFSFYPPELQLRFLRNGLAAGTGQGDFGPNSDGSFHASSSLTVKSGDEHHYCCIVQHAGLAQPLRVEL
Chain of human FcRn (P61769 21-119 limits assumed, chain 2 of 2): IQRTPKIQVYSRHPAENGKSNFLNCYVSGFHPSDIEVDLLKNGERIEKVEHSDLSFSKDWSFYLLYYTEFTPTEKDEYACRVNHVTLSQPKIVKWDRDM

B1: A375-G1T3/B167-Lamlib (antibody, human IgG1, lambda)
heavy: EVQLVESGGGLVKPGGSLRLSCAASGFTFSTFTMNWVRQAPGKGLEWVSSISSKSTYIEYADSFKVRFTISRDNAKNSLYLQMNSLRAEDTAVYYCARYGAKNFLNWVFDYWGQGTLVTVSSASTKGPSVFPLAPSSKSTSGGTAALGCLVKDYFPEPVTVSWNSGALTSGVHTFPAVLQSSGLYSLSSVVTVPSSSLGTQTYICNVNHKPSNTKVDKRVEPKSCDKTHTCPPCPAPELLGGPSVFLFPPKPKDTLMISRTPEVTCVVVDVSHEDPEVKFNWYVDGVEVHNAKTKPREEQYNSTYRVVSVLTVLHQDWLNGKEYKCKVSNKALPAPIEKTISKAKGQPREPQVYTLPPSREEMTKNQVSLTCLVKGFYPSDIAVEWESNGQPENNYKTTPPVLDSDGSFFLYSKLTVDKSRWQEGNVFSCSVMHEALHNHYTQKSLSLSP
light: QSALTQPPSASGSPGQTVTISCTGTRYDVGYYEYVSWYQQHPGKAPKLMIYETSKRLSGVPDRFSGSKSGNTASLTVSGLQAEDEADYYCSSYRYEHQVSFGGGTKLTVLGQPKAAPSVTLFPPSSEELQANKATLVCLISDFYPGAVTVAWKADSSPVKAGVETTTPSKQSNNKYAASSYLSLTPEQWKSHRSYSCQVTHEGSTVEKTVAPTECS
notes: copies: 2 + 2
Regarding B1, the “binding per 1RU of antibody” value with hFcgRIa [1] is 0.0813 RU; in the experiment with hFcgRIIaH [2], 0.0567 RU; with hFcgRIIaR [3], 0.0463 RU; with hFcgRIIb [4], 0.011 RU; with hFcgRIIIaF [5] it was 0.0213 RU; with hFcgRIIIaV [6] it was 0.07 RU. In addition, binding with human FcRn was characterised by a dissociation constant (Kd) of 1270 nM. In addition, the relative binding amount in the experiment with hFcgRIa [7], with hFcgRIIaH [8], in the experiment with hFcgRIIaR [9], with hFcgRIIb [10], with hFcgRIIIaF [11] and in the experiment with hFcgRIIIaV [12] was 1 throughout.

B2: A375-TT11/B167-Lamlib (antibody, human IgG1, lambda)
heavy: EVQLVESGGGLVKPGGSLRLSCAASGFTFSTFTMNWVRQAPGKGLEWVSSISSKSTYIEYADSFKVRFTISRDNAKNSLYLQMNSLRAEDTAVYYCARYGAKNFLNWVFDYWGQGTLVTVSSASTKGPSVFPLAPSSKSTSGGTAALGCLVKDYFPEPVTVSWNSGALTSGVHTFPAVLQSSGLYSLSSVVTVPSSSLGTQTYICNVNHKPSNTKVDKKVEPKSCDKTHTCPPCPAPEYLGGDSVFLFPPKPKDVLMISRTPEVTCVVVDVSHEDPEVKFNWYVDGVEVHNAKTKPREEQYNSTYRVVSVLPVLHQDWLNGKEYKCKVSNKALPKPIEKTISKAKGQPREPQVYTLPPSREEMTKNQVSLTCLVKGFYPSDIAVEWESNGQPENNYKTTPPVLDSDGSFFLYSKLTVDKSRWQQGNVFSCSVMHEALHNHYTQKSLSLSP
light: QSALTQPPSASGSPGQTVTISCTGTRYDVGYYEYVSWYQQHPGKAPKLMIYETSKRLSGVPDRFSGSKSGNTASLTVSGLQAEDEADYYCSSYRYEHQVSFGGGTKLTVLGQPKAAPSVTLFPPSSEELQANKATLVCLISDFYPGAVTVAWKADSSPVKAGVETTTPSKQSNNKYAASSYLSLTPEQWKSHRSYSCQVTHEGSTVEKTVAPTECS
notes: copies: 2 + 2
For the molecule B2, the “binding per 1RU of antibody” value with hFcgRIIaH [2] is 0.002 RU; with hFcgRIIb [4], 0.0477 RU; with hFcgRIIIaF [5], -0.0009 RU; in the experiment with hFcgRIIIaV [6] it was -0.001 RU. The dissociation constant (Kd) with human FcRn is 1560 nM. Besides, the relative binding amount in the experiment with hFcgRIIaH [8] is 0.03; with hFcgRIIb [10], 4.35; with hFcgRIIIaF [11] it was -0.04; in the experiment with hFcgRIIIaV [12] it was -0.01.

As usually defined, the Kd is the equilibrium constant for the complex coming apart. The low end stands for tighter binding, the high end for weaker binding.
